# In patent US9394555B2, “Compositions comprising a polypeptide having cellulolytic enhancing activity and a dioxy compound and uses thereof” (priority 2010, dated 2016):
# B1: A. oryzae CEL3A beta-glucosidase: CEL3A beta-glucosidase (SEQ ID NO: 112), recombinantly prepared as described in WO 2004/099228 (protein, listed as Aspergillus oryzae)
# chain: MKLGWIEVAALAAASVVSAKDDLAYSPPFYPSPWADGQGEWAEVYKRAVDIVSQMTLTEKVNLTTGTGWQLERCVGQTGSVPRLNIPSLCLQDSPLGIRFSDYNSAFPAGVNVAATWDKTLAYLRGQAMGEEFSDKGIDVQLGPAAGPLGAHPDGGRNWEGFSPDPALTGVLFAETIKGIQDAGVIATAKHYIMNEQEHFRQQPEAAGYGFNVSDSLSSNVDDKTMHELYLWPFADAVRAGVGAVMCSYNQINNSYGCENSETLNKLLKAELGFQGFVMSDWTAHHSGVGAALAGLDMSMPGDVTFDSGTSFWGANLTVGVLNGTIPQWRVDDMAVRIMAAYYKVGRDTKYTPPNFSSWTRDEYGFAHNHVSEGAYERVNEFVDVQRDHADLIRRIGAQSTVLLKNKGALPLSRKEKLVALLGEDAGSNSWGANGCDDRGCDNGTLAMAWGSGTANFPYLVTPEQAIQNEVLQGRGNVFAVTDSWALDKIAAAARQASVSLVFVNSDSGEGYLSVDGNEGDRNNITLWKNGDNVVKTAANNCNNTVVIIHSVGPVLIDEWYDHPNVTGILWAGLPGQESGNSIADVLYGRVNPGAKSPFTWGKTRESYGSPLVKDANNGNGAPQSDFTQGVFIDYRHFDKFNETPIYEFGYGLSYTTFELSDLHVQPLNASRYTPTSGMTEAAKNFGEIGDASEYVYPEGLERIHEFIYPWINSTDLKASSDDSNYGWEDSKYIPEGATDGSAQPRLPASGGAGGNPGLYEDLFRVSVKVKNTGNVAGDEVPQLYVSLGGPNEPKVVLRKFERIHLAPSQEAVWTTTLTRRDLANWDVSAQDWTVTPYPKTIYVGNSSRKLPLQASLPKAQ
# What was measured:
# Assay type in all cases: biochemical
# [1] = molecular target: T1, T. aurantiacus GH61A polypeptide (Thermoascus aurantiacus, UniProt G3XAP7, N13Y); test: Bacterial cellulose conversion assay (Examples 15, 16); conditions: A. oryzae CEL3A beta-glucosidase (50 mg protein per g cellulose) only; 72 hours, 50° C.
# T1 sequence (G3XAP7 whole entry N13Y): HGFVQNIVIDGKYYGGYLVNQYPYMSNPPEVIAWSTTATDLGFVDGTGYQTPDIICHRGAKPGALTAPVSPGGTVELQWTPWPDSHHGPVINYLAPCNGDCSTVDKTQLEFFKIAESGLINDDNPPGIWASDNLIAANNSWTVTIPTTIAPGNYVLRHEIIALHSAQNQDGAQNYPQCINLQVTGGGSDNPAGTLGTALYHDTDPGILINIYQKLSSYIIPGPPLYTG
# Protocol: Bacterial cellulose was prepared from NATA DE COCO (Huerto International Trading, Lucena City, Philippines) by extensive rinsing of one 500 ml can of cubes with water followed by homogenation for 15 minutes in 0.25 M sodium hydroxide using a WARING BLENDER® (Waring Products, Torrington, Conn., USA). The resulting slurry was pelleted at 40,000×g in a SORVALL® RT7 centrifuge. The supernatant was discarded. The pellet was then resuspended in 0.25 M sodium hydroxide and stirred overnight at 4° C. This procedure was repeated four times. Following the first washing steps, the cellulose was washed six times under similar conditions, substituting water for 0.25 M sodium hydroxide. Following the water washing, the cellulose was again homogenized for 15 minutes in a WARING BLENDER®, and adjusted to a final volume of 250 ml.
# A 0.36% bacterial cellulose slurry was prepared as described in Example 14. This 0.36% slurry was thoroughly resuspended by shaking, and quickly transferred to a 100 ml beaker and stirred rapidly with a magnetic stirrer. Seven hundred μl aliquots of the bacterial cellulose slurry were pipetted into wells of a 2.0 ml 96-deepwell plate (Axygen, Union City, Calif.) using a 1000 μl micropipette with a wide aperture tip (end of tip cut off about 2 mm from the base). One hundred μl of 10 mM MnSO4-500 mM sodium acetate pH 5 was then added to each well. One hundred μl of either deionized water, a 1% gallic acid solution dissolved in water, or a 1% gallic acid solution containing 50 mM EDTA were added to each well. Enzyme mixtures were prepared and then added simultaneously to all wells in a volume of 100 μl, for a total of 1 ml in each reaction. […] All experiments reported were performed in triplicate.
# (§1) Primary analysis of the hydrolysis reactions was performed using an AGILENT® 1100 HPLC with CHEMSTATION® software equipped with an AMINEX™ HPX-87H column. After approximately 4 days, the deep-well plate was removed from the incubator and chilled overnight to 4° C. The plate was then mixed well by inversion and briefly centrifuged 52×g in a SORVALL® RT7 centrifuge for 10 seconds. Samples were then mixed by pipetting, and 200 μl from each well were transferred to a MULTISCREEN® HV centrifuge filter plate assembly. The centrifuge filter plate assembly was centrifuged at 2000 rpm in a SORVALL® RT7 centrifuge for 20 minutes. […] Sugars were detected using a refractive index detector with quantification by integration compared to purified sugar standards.
# All HPLC data processing was performed using MICROSOFT EXCEL™ software. […] In this assay only glucose was measured since beta-glucosidase was at high levels in all samples but the controls. Percent conversion was determined using Equation 1. Triplicate data points were averaged and standard deviation was calculated.
# The bacterial cellulose hydrolysis assay was performed as described in Example 15.
# Data was collected and analyzed, as described in Example 15, after 72 hours of incubation at 50° C.
# [2] = molecular target: T1, T. aurantiacus GH61A polypeptide; test: Phosphoric acid swollen cellulose (PASC) hydrolysis assay (Examples 18, 19); conditions: A. oryzae CEL3A beta-glucosidase (20 mg protein per g cellulose) only; 72 hours, 50° C.
# Protocol: A 1% phosphoric acid swollen cellulose (PASC) slurry was prepared from AVICEL® PH101 using the protocol described by Zhang et al., 2006, Biomacromolecules 7: 644-648.
# The 1.0% PASC slurry prepared as described in Example 17 was thoroughly resuspended by shaking, and quickly transferred to a 100 ml beaker and stirred rapidly with a magnetic stirrer. Five hundred μl aliquots of the 1.0% PASC slurry were pipetted into wells of a 2.0 ml 96-deepwell plate (Axygen, Union City, Calif., USA) using a 1000 μl micropipette with a wide aperture tip (end of tip cut off about 2 mm from the base). One hundred μl of 10 mM MnSO4-500 mM sodium acetate pH 5 were then added to each well. […]
# Primary analysis of the hydrolysis reactions was performed using an AGILENT® 1100 HPLC with CHEMSTATION® software equipped with an AMINEX™ HPX-87H column. […] Sugars were detected using a refractive index detector with quantification by integration compared to purified sugar standards.
# All HPLC data processing was performed using MICROSOFT EXCEL™ software. […] In this assay only glucose was measured since beta-glucosidase was at high levels in all samples but the controls. Percent conversion was calculated using Equation 1. Triplicate data points were averaged and standard deviation was calculated. […]
# Data were collected and analyzed, as described in Example 18, after 72 hours of incubation at 50° C.
# [3] = molecular target: T1, T. aurantiacus GH61A polypeptide; test: Phosphoric acid swollen cellulose (PASC) conversion assay (Examples 20, 21); conditions: A. oryzae CEL3A beta-glucosidase (20 mg protein per g cellulose) only; 72 hours, 50° C.
# Protocol: A 1.0% PASC slurry was prepared as described in Example 17. Ten ml of the 1.0% PASC slurry, 10 ml of H2O, and […] of dioxy compound were thoroughly mixed by shaking,
# Five hundred μl aliquots of the 0.50% phosphoric acid swollen cellulose/0.05% dioxy compound slurry were pipetted into wells of a 2.0 ml 96-deepwell plate (Axygen, Union City, Calif., USA) using a 1000 μl micropipette with a wide aperture tip (end of tip cut off about 2 mm from the base). One hundred μl of 10 mM MnSO4-500 mM sodium acetate pH 5 were then added to each well. Two hundred μl of deionized water were added to each well. Enzyme mixtures were prepared and then added simultaneously to all wells in a volume of 200 μl, for a total of 1 ml in each reaction. […] All experiments reported were performed in triplicate.
# as §1
# All HPLC data processing was performed using MICROSOFT EXCEL™ software. […] In this assay only glucose was measured since beta-glucosidase was at high levels in all samples but the controls. Percent conversion was calculated using Equation 1. Triplicate data points were averaged and standard deviation was calculated.
# The PASC assay was performed as described in Example 20.
# Data were collected and analyzed, as described in Example 20, after 72 hours of incubation at 50° C.
molecule,measurement,setting,value
B1,conversion of the bacterial cellulose,[1],2.4±2.9%
same,conversion of PASC,[2],2.4±0.5%
same,conversion of the phosphoric acid swollen cellulose,[3],2.0±0.1%
